Data reported in US5521157A, “Modified polypeptide compound with VIP-like activity” (Sanwa Kagaku Kenkyusho Co., Ltd., priority 1993, dated 1996).
Square brackets hold non-standard residues; d marks the D form. Ends that are not written are not given here. Peptide text beside a SMILES is read from it. hSer = N[C@@H](CCO)C(=O)O

Key:
in vitro = conditions: male, Hartley, guinea pig, pH 7.8
Description: First, male Hartley guinea pigs (weight: 350-380 g) were anesthetized by intraperitoneally administering urethane. Next, the respiratory tract of each animal was exposed by cutting its neck and 4 ml of physiological saline was slowly injected into the respiratory tract. Then, the injected solution was recovered from the respiratory tract, which is referred to as the broncho-alveolar lavage wash.
1, 2, 3 and 4 hours after the initiation of the incubation, the reaction mixture was collected and the residual concentration of the (SEQ ID NO: 3)-n-hexylamide or the natural type VIP was measure under the following HPLC conditions to thereby determine the half-life thereof.
Column: μ-BONDASPHERE C-18 column (manufactured Waters Co., 3.9 mm×150 mm)
Eluent: eluted with 0.012N hydrochloric containing acetonitrile at a linear gradient concentration from 15 to 25%, for 20 min

enkephalinase = enkephalinase (Homo sapiens, UniProt P08473); conditions: incubated with enkephalinase, within 15 minutes; cited from earlier work
Sequence of enkephalinase (P08473 whole entry, species assumed): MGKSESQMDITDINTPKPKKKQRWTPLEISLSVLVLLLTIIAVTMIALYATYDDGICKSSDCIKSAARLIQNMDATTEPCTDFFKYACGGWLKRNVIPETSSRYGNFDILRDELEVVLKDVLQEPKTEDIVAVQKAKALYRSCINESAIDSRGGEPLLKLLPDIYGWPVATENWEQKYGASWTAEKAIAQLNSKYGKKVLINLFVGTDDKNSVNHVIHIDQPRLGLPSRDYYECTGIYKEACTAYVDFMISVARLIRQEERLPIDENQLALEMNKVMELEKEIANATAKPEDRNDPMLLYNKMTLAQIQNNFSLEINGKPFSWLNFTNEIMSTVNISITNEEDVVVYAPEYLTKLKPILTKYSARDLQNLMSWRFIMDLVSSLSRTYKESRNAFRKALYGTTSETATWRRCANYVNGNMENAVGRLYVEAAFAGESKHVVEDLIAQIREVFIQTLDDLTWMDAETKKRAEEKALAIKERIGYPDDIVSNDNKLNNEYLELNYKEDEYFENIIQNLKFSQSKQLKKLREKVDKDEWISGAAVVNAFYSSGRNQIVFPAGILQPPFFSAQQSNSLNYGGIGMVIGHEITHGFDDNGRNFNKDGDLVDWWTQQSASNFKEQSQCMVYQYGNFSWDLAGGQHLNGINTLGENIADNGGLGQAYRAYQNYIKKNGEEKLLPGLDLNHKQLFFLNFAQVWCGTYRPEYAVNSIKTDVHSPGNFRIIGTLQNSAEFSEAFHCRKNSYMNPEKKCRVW

[1] = broncho-alveolar lavage wash from guinea pig at 37° C.; cited from earlier work
[2] = tested on: histamine-induced bronchoconstriction; assay: Duration of bronchoconstriction suppressing activity (Konzett-Rossler method); type: in vivo; conditions: male guinea pig, drug dropped directly into the respiratory tract, 5 μg/kg histamine intravenously
Description: (Duration of bronchoconstriction suppressing activity)
The inhibitory activity of the VIP analog derivatives, obtained in the Production Examples above, on histamine-induced bronchoconstriction was evaluated on test samples in accordance with a Konzett-Rossler method. Natural type VIP was used as a control.
First, a male guinea pig was fixed under urethane-anesthesia. After cutting the neck of the animal, a canula drug line was inserted into its jugular vein while a canula connected to a Konzett-Rossler device was inserted into its respiratory tract. After dropping a test drug directly into the respiratory tract, the head of the animal was held up for 1 minute to allow the drug to reach the lungs. Subsequently, 5 μg/kg of histamine was intravenously administered to the animal and the bronchoconstriction was measured over time. One minute before the administration of histamine, succinylcholine chloride was intravenously administered to the animal to thereby suppress spontaneous respiration during the experiment. Evaluation was made in the following manner. Before the administration of the test drug, the intensity of bronchoconstriction induced by histamine was measured. Then, after the administration of the test drug, the time required for reducing by 50% the suppression of bronchoconstriction induced by the same dose of histamine as measured above was defined as t50. The t50 of each test drug was determined.

[3] = Measurement of elution time in reversed phase HPLC (correlates to hydrophobicity); type: physicochemical; conditions: reversed phase C-18 column, 40° C., 0.012N hydrochloric acid with 15, 25 and 50% acetonitrile, 50 minutes, 0.8 ml/min
Description: (Measurement of elution time in reversed phase HPLC)
It is well known that the elution time in HPLC with the use of a reversed phase column correlates to the hydrophobicity of a compound (cf. J. Med. Chem., vol. 18, pp. 549-552 (1975) and J. Pharm. Sci., vol. 66, pp. 747-749 (1977)). Thus, the elution time of each of the VIP analog derivatives obtained in the above Reference Production Example and production Examples was measured under the HPLC conditions as specified below. As a control, natural VIP having a human type amino acid sequence (purchased from Peptide Institute, INC.) was employed.
Column: μ-BONDASPHERE C-18 column (manufactured by Millipore Corporation, 3.9 mm×150 mm)
Eluent: eluted with 0.012N hydrochloric containing 15, 25 and 50% of acetonitrile in this order, for 50 minutes
Detection wavelength: 210 nm

Molecule	t50 [2]	Retention time [3]	other results
CCCCCCNC(=O)[C@H](CCO)NC(=O)[C@H](CCCCN)NC(=O)[C@H](CC(C)C)NC(=O)[C@H](C)NC(=O)[C@H](CCCCN)NC(=O)[C@H](CC(N)=O)NC(=O)[C@H](CC(C)C)NC(=O)[C@H](Cc1ccc(O)cc1)NC(=O)[C@H](CCCCN)NC(=O)[C@H](CCCCN)NC(=O)[C@H](C)NC(=O)[C@H](C)NC(=O)[C@H](CC(C)C)NC(=O)[C@H](CCC(N)=O)NC(=O)[C@H](CCCCN)NC(=O)[C@H](CCCNC(=N)N)NC(=O)[C@H](CC(C)C)NC(=O)[C@H](CCCCN)NC(=O)[C@@H](NC(=O)[C@H](Cc1ccc(O)cc1)NC(=O)[C@H](CC(N)=O)NC(=O)CNC(=O)[C@@H](NC(=O)[C@H](Cc1ccccc1)NC(=O)[C@@H](NC(=O)[C@H](C)NC(=O)[C@H](CC(=O)O)NC(=O)[C@H](CO)NC(=O)[C@@H](N)Cc1c[nH]cn1)C(C)C)[C@@H](C)O)[C@@H](C)O [Production Example 2, VIP analog-n-hexylamide derivative] (HELM PEPTIDE1{H.S.D.A.V.F.T.G.N.Y.T.K.L.R.K.Q.L.A.A.K.K.Y.L.N.K.A.L.K.[O=C([C@H](CCO)N[*:1])[*:2]].[CCCCCCN[*:1]]}$$$$V2.0)			half-life at 330 μg/ml (in vitro; broncho-alveolar lavage wash): 4.9 h
CC[C@H](C)[C@H](NC(=O)[C@H](CO)NC(=O)[C@H](CC(N)=O)NC(=O)[C@H](CC(C)C)NC(=O)[C@H](Cc1ccc(O)cc1)NC(=O)[C@H](CCCCN)NC(=O)[C@H](CCCCN)NC(=O)[C@@H](NC(=O)[C@H](C)NC(=O)[C@H](CCSC)NC(=O)[C@H](CCC(N)=O)NC(=O)[C@H](CCCCN)NC(=O)[C@H](CCCN=C(N)N)NC(=O)[C@H](CC(C)C)NC(=O)[C@H](CCCN=C(N)N)NC(=O)[C@@H](NC(=O)[C@H](Cc1ccc(O)cc1)NC(=O)[C@H](CC(N)=O)NC(=O)[C@H](CC(=O)O)NC(=O)[C@@H](NC(=O)[C@H](Cc1ccccc1)NC(=O)[C@@H](NC(=O)[C@H](C)NC(=O)[C@H](CC(=O)O)NC(=O)[C@H](CO)NC(=O)[C@@H](N)Cc1c[nH]cn1)C(C)C)[C@@H](C)O)[C@@H](C)O)C(C)C)C(=O)N[C@@H](CC(C)C)C(=O)N[C@@H](CC(N)=O)C(N)=O [VIP, vasoactive intestinal polypeptide]			VIP degraded (enkephalinase): more than 70%; half-life [1]: about 1.5 hours; half-life at 330 μg/ml (in vitro; cerebrospinal or other body fluid): 1.2 h
Reference Production Example: basic VIP analog of SEQ ID NO: 3 disclosed in JP-A-6-220090 / EP-A-0,613,904, starting material of the derivatives (HSDAVFTGNYTKLRKQLAAKKYLNKALK[hSer]; ends and bridges not checked) [reference compound]	26 min	13.8 min	
VIP analog-dihexylamide derivative (HSDAVFTGNYTKLRKQLAAKKYLNKALK[hSer]-dihexylamide) [Production Example 6]		41.4 min	
VIP analog-ethylenediaminemonoamide derivative (HSDAVFTGNYTKLRKQLAAKKYLNKALK[hSer]-{ethylenediamine monoamide}) [Production Example 8]		12.1 min	
VIP analog-laurylamide derivative (HSDAVFTGNYTKLRKQLAAKKYLNKALK[hSer]-laurylamide) [Production Example 3]	61 min	40.0 min	
VIP analog-n-propylamide derivative (HSDAVFTGNYTKLRKQLAAKKYLNKALK[hSer]-{n‑propylamide}) [Production Example 1]		18.0 min	
VIP analog-oleylamide derivative (HSDAVFTGNYTKLRKQLAAKKYLNKALK[hSer]-oleylamide) [Production Example 5]		48.3 min	
VIP analog-stearylamide derivative (HSDAVFTGNYTKLRKQLAAKKYLNKALK[hSer]-stearylamide) [Production Example 4]		46.8 min	
VIP analog-triethylenetetraminemonoamide derivative (HSDAVFTGNYTKLRKQLAAKKYLNKALK[hSer]-{triethylenetetramine monoamide}) [Production Example 7]	58 min	10.9 min	
